Experimental data: PMC10039900, “Characterization of human oxidoreductases involved in aldehyde odorant metabolism” (Scientific Reports, 2023)

Target: the molecule itself
Assay: crystal structure; sitting drop vapor diffusion at 20 °C, ALDH3A1 2 mg/ml, 18% PEG 3350 in 0.1 M potassium acetate pH 7.5; crystals soaked in mother liquor plus 10 mM octanal; 1.80 Å

B1: aldehyde dehydrogenase family 3 member A1 (ALDH3A1) (enzyme, human)
chain: SKISEAVKRARAAFSSGRTRPLQFRIQQLEALQRLIQEQEQELVGALAADLHKNEWNAYYEEVVYVLEEIEYMIQKLPEWAADEPVEKTPQTQQDELYIHSEPLGVVLVIGTWNYPFNLTIQPMVGAIAAGNSVVLKPSELSENMASLLATIIPQYLDKDLYPVINGGVPETTELLKERFDHILYTGSTGVGKIIMTAAAKHLTPVTLELGGKSPCYVDKNCDLDVACRRIAWGKFMNSGQTCVAPDYILCDPSIQNQIVEKLKKSLKEFYGEDAKKSRDYGRIISARHFQRVMGLIEGQKVAYGGTGDAATRYIAPTILTDVDPQSPVMQEEIFGPVLPIVCVRSLEEAIQFINQREKPLALYMFSSNDKVIKKMIAETSSGGVAANDVIVHITLHSLPFGGVGNSGMGSYHGKKSFETFSHRRSCLVRPLMNDEGLKVRYPPSPAKMTQH
notes: human ALDH3A1, UniProt P30838; Subcloned between NdeI and SacI; The crystal was soaked with 10 mM octanal (a small molecule, not a partner); also called aldehyde dehydrogenase 3A1; Aldehyde dehydrogenase, dimeric NADP-preferring; source: E. coli BL21(DE3), purified (two ammonium sulfate precipitations, two chromatography steps)
binding result: binds
